Data reported in the supplement of paper PMC11246515.
± gives the standard deviation of the averaged measurements.

Assay: total protein half-life in vivo (active degradation + dilution); higher = more stable protein
[1] = E. coli NCM3722 delta-clpP delta-lon delta-hslV, growth: N-lim chemostat, doubling time 6 h
[2] = wild type E. coli NCM3722, growth: C-lim chemostat, doubling time 12 h
[3] = wild type E. coli NCM3722, growth: N-lim chemostat, doubling time 6 h
[4] = wild type E. coli NCM3722, growth: P-lim chemostat, doubling time 12 h
[5] = E. coli NCM3722 delta-clpP, growth: N-lim chemostat, doubling time 6 h
[6] = E. coli NCM3722 delta-hslV, growth: N-lim chemostat, doubling time 6 h
[7] = E. coli NCM3722 delta-lon, growth: N-lim chemostat, doubling time 6 h
[8] = E. coli NCM3722 delta-smpB, growth: N-lim chemostat, doubling time 6 h
[9] = wild type E. coli NCM3722, growth: C-lim chemostat, doubling time 3 h
[10] = wild type E. coli NCM3722, growth: C-lim chemostat, doubling time 6 h
[11] = wild type E. coli NCM3722, growth: N-lim chemostat, doubling time 12 h
[12] = wild type E. coli NCM3722, growth: P-lim chemostat, doubling time 6 h

Row | Sequence | total protein half-life in vivo [1] [h] | total protein half-life in vivo [2] [h] | total protein half-life in vivo [3] [h] | total protein half-life in vivo [4] [h] | total protein half-life in vivo [5] [h] | total protein half-life in vivo [6] [h] | total protein half-life in vivo [7] [h] | total protein half-life in vivo [8] [h] | total protein half-life in vivo [9] [h] | total protein half-life in vivo [10] [h] | total protein half-life in vivo [11] [h] | total protein half-life in vivo [12] [h]
1 | MQFDYIIIGAGSAGNVLATRLTEDPNTSVLLLEAGGPDYRFDFRTQMPAALAFPLQGKRYNWAYETEPEPFMNNRRMECGRGKGLGGSSLINGMCYIRGNALDLDNWAQEPGLENWSYLDCLPYYRKAETRDMGENDYHGGDGPVSVTTSKPGVNPLFEAMIEAGVQAGYPRTDDLNGYQQEGFGPMDRTVTPQGRRASTARGYLDQAKSRPNLTIRTHAMTDHIIFDGKRAVGVEWLEGDSTIPTRATANKEVLLCAGAIASPQILQRSGVGNAELLAEFDIPLVHELPGVGENLQDHLEMYLQYECKEPVSLYPALQWWNQPKIGAEWLFGGTGVGASNHFEAGGFIRSREEFAWPNIQYHFLPVAINYNGSNAVKEHGFQCHVGSMRSPSRGHVRIKSRDPHQHPAILFNYMSHEQDWQEFRDAIRITREIMHQPALDQYRGREISPGVECQTDEQLDEFVRNHAETAFHPCGTCKMGYDEMSVVDGEGRVHGLEGLRVVDASIMPQIITGNLNATTIMIGEKIADMIRGQEALPRSTAGYFVANGMPVRAKK | 5.76 ± 0.8 | > 16 | 2.75 | 4.08 | – | – | – | – | – | – | – | –
2 | MQFEKMITEGSNTASAEIDRVSTLEMCRIINDEDKTVPLAVERVLPDIAAAIDVIHAQVSGGGRLIYLGAGTSGRLGILDASECPPTYGVKPGLVVGLIAGGEYAIQHAVEGAEDSREGGVNDLKNINLTAQDVVVGIAASGRTPYVIAGLEYARQLGCRTVGISCNPGSAVSTTAEFAITPIVGAEVVTGSSRMKAGTAQKLVLNMLSTGLMIKSGKVFGNLMVDVVATNEKLHVRQVNIVKNATGCSAEQAEAALIACERNCKTAIVMVLKNLDAAEAKKRLDQHGGFIRQVLDKE | 5.64 ± 0.068 | 8.41 ± 0.19 | 4.37 ± 0.25 | 9.65 ± 0.26 | 4.82 ± 0.37 | 5.96 ± 1.8 | 4.88 ± 0.37 | 4.08 ± 0.35 | 3.04 ± 0.084 | 5.28 ± 0.059 | 8.74 ± 0.62 | 5.92 ± 1.1
3 | MQFSTTPTLEGQTIVEYCGVVTGEAILGANIFRDFFAGIRDIVGGRSGAYEKELRKAREIAFEELGSQARALGADAVVGIDIDYETVGQNGSMLMVSVSGTAVKTRR [P0A8C1] | 4.49 ± 0.27 | 10.2 ± 3.2 | 3.84 ± 0.47 | 12.2 ± 0.14 | 4.01 ± 0.34 | 3.9 ± 0.47 | 4.39 ± 0.13 | 4.26 ± 0.15 | 2.918 ± 0.013 | 5.49 ± 0.17 | 6.45 ± 0.22 | 5.53 ± 0.24
4 | MQILKVIGLLMEYPDELLWECKEDALALIRRDAPMLTDFTHNLLNAPLLDKQAEWCEVFDRGRTTSLLLFEHVHAESRDRGQAMVDLLAEYEKVGLQLDCRELPDYLPLYLEYLSVLPDDQAKEGLLNVAPILALLGGRLKQREAPWYALFDALLQLAGSSLSSDSVTKQVNSEERDDTRQALDAVWEEEQVKFIEDNATACDSSPLNQYQRRFSQDVAPQYVDISAGGGK | 3.93 ± 0.43 | 1.78 | 0.752 ± 0.1 | 1.94 ± 0.61 | 1.45 | 0.577 | 0.917 | 0.553 | – | 1.45 ± 0.12 | 0.75 | –
5 | MQKKSIYVAYTGGTIGMQRSEQGYIPVSGHLQRQLALMPEFHRPEMPDFTIHEYTPLMDSSDMTPEDWQHIAEDIKAHYDDYDGFVILHGTDTMAYTASALSFMLENLGKPVIVTGSQIPLAELRSDGQINLLNALYVAANYPINEVTLFFNNRLYRGNRTTKAHADGFDAFASPNLPPLLEAGIHIRRLNTPPAPHGEGELIVHPITPQPIGVVTIYPGISADVVRNFLRQPVKALILRSYGVGNAPQNKAFLQELQEASDRGIVVVNLTQCMSGKVNMGGYATGNALAHAGVIGGADMTVEATLTKLHYLLSQELDTETIRKAMSQNLRGELTPDD [P0A962] | 5.54 ± 0.6 | 12 ± 1.2 | 5.74 ± 0.28 | 11.5 ± 1.4 | 5.31 ± 0.36 | 6.03 ± 0.21 | 5.69 ± 0.17 | 5 ± 0.11 | 3.18 ± 0.034 | 5.81 ± 0.83 | 10.9 ± 0.4 | 5.81 ± 0.6
6 | MQKVKLPLTLDPVRTAQKRLDYQGIYTPDQVERVAESVVSVDSDVECSMSFAIDNQRLAVLNGDAKVTVTLECQRCGKPFTHQVYTTYCFSPVRSDEQAEALPEAYEPIEVNEFGEIDLLAMVEDEIILALPVVPVHDSEHCEVSEADMVFGELPEEAQKPNPFAVLASLKRK [P0AB28] | 5.71 ± 1.6 | 7.12 ± 0.54 | 3.66 ± 0.32 | 8.64 ± 0.14 | 5.08 ± 1.3 | 3.49 ± 0.1 | 3.58 ± 0.24 | 3.21 ± 0.78 | 1.93 ± 0.19 | 4.48 ± 0.12 | 5.22 ± 0.26 | 4.32 ± 0.3
7 | MQLRKPATAILALALSAGLAQADDAAPAAGSTLDKIAKNGVIVVGHRESSVPFSYYDNQQKVVGYSQDYSNAIVEAVKKKLNKPDLQVKLIPITSQNRIPLLQNGTFDFECGSTTNNVERQKQAAFSDTIFVVGTRLLTKKGGDIKDFANLKDKAVVVTSGTTSEVLLNKLNEEQKMNMRIISAKDHGDSFRTLESGRAVAFMMDDALLAGERAKAKKPDNWEIVGKPQSQEAYGCMLRKDDPQFKKLMDDTIAQVQTSGEAEKWFDKWFKNPIPPKNLNMNFELSDEMKALFKEPNDKALN | 6.32 ± 0.97 | 11.3 ± 0.22 | 5.9 ± 0.54 | 13.2 ± 0.35 | 6.45 ± 1.6 | 6.8 ± 0.39 | 7.14 ± 0.3 | 6.02 ± 0.43 | 3.26 ± 0.14 | 6.76 ± 0.34 | 14.1 ± 0.48 | 5.81 ± 0.41
